± gives the uncertainty stated by the source.
Test: protein stability index of a GFP-peptide fusion (yeast GPS) (PSI 1-4); higher = more stable; sorted into four equal gates, so the index is relative within each strain
Outline: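 Sequencing reads from sorted gates were used to score each peptide. The library consisted of tiled 17-residue yeast protein peptides fused downstream of GFP on a Cherry-expressing plasmid, pooled and carried in yeast. Mid-log cultures in leucine-free medium were split into four equal gates by GFP/Cherry ratio, and each gate's plasmids were PCR-amplified and Illumina-sequenced. The protein stability index adds up, over all gates, the read frequency multiplied by the gate number.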

Sequence	protein stability index (doa10∆)	protein stability index (pdr5∆)	protein stability index (san1∆)	protein stability index (ubr1∆)
AQPSVQSSFAGTWSAKE [FAS2]	2.74 ± 0.21	3.13 ± 0.14	3.35 ± 0.076	3.09 ± 0.087
FVKGISRDIKALQDSLF [YML103C/NUP188]	2.25 ± 0.071	2.18 ± 0.058	1.97 ± 0.096	1.7 ± 0.043
LLCALDRKDQDDRDHFG [RPB2]	3.22 ± 0.096	3.28 ± 0.067	2.71 ± 0.1	3.47 ± 0.05
ITQMRVNDEEEHKQLVA [RPC82]	3.29 ± 0.13	2.92 ± 0.099	2.82 ± 0.13	3.34 ± 0.16
YDDEQNTSAQHVESDKI [IRR1]	3.25 ± 0.094	3.04 ± 0.053	3.06 ± 0.065	3.27 ± 0.057
RKFALEKLYIFYKLNMP [SRP72]	1.99 ± 0.046	1.79 ± 0.057	1.44 ± 0.085	1.29 ± 0.039
NKLSSILQNEHDYWNKI [SRB4]	2.37 ± 0.069	2.41 ± 0.05	2.25 ± 0.099	2.47 ± 0.043
WNLNATKPNVLNDPSLK [SIN4]	3 ± 0.088	2.94 ± 0.071	3 ± 0.054	3.26 ± 0.04
SIQEQIQEFQGNPYIEL [SNF5]	3.16 ± 0.071	3.3 ± 0.08	3.49 ± 0.082	3.31 ± 0.059
LERTDLKSKVIDSPELL [RPN7]	3.17 ± 0.073	3.01 ± 0.083	3.26 ± 0.085	3.2 ± 0.076
WVTEVLGNDIPHDLIIG [BRR2]	2.17 ± 0.042	2.95 ± 0.056	2.29 ± 0.063	2.89 ± 0.046
TWTNSKIFIKDPKFVNS [YML103C/NUP188]	2.27 ± 0.11	2.05 ± 0.06	1.71 ± 0.11	1.73 ± 0.062
DTVNSALENDVATNIVN [YML103C/NUP188]	2.87 ± 0.051	3.14 ± 0.064	3.09 ± 0.046	3.19 ± 0.055
LRIVKPTVSLTINLDRF [RPC82]	2.29 ± 0.068	2.29 ± 0.054	2.46 ± 0.063	2.43 ± 0.11
WNSLMYALQSVKLPRAF [RRP43]	1.31 ± 0.066	1.34 ± 0.083	1.2 ± 0.12	1.29 ± 0.051
HGIVFQHPFPLAHSQHR [SSN2]	2.14 ± 0.066	2.23 ± 0.068	2.01 ± 0.085	2.38 ± 0.078
HRVAENWRKQKGIDSVV [RPL32]	2.55 ± 0.099	2.61 ± 0.17		2.25 ± 0.18
SFVHGVVGQLFQIDNDN [SMC2]	3.11 ± 0.16	3.13 ± 0.12	3.13 ± 0.068	3.25 ± 0.13
SKLNELKKELKLLAKEL [SMC2]	2.92 ± 0.11	2.9 ± 0.12		3.09 ± 0.15
DPEKDSINATALAFGYV [SIN4]	2.16 ± 0.052	1.56 ± 0.058	1.52 ± 0.15	1.82 ± 0.042
GVLLRDAHGVTQARVIT [RPS13]	2.4 ± 0.075	2.57 ± 0.093	2.85 ± 0.14	2.27 ± 0.082
VSNNEANTPSIPTNPVD [SWI3]	3.14 ± 0.074	3.2 ± 0.09	2.97 ± 0.082	3.08 ± 0.065
MEGDDLFDEFGNLIGVD [SNU114]	3.37 ± 0.2			
TISSKPDILATDLIREK [YCS4]		2.54 ± 0.25	3.4 ± 0.26	3.09 ± 0.066
TILSSKLSNIWMQRQLI [SRB2]	2.33 ± 0.11	1.96 ± 0.1	2.76 ± 0.1	2.82 ± 0.051
ELESITESITHDSSNGL [NUT1]	2.95 ± 0.1	3.27 ± 0.074	3.25 ± 0.051	3.2 ± 0.067

Sequence	protein stability index (doa10∆)	protein stability index (pdr5∆)	protein stability index (san1∆)	protein stability index (ubr1∆)
ISWCSLSETNGLHKFVK [PRE10]	2.38 ± 0.089	2.73 ± 0.12	2.82 ± 0.11	2.44 ± 0.11
IPFPDHNQSPRNTYQSA [RPB2]	2.97 ± 0.083	3.06 ± 0.067	3.22 ± 0.056	2.78 ± 0.063
NHWRQNKGRAVYINPSG [BRR2]	2.97 ± 0.12	2.78 ± 0.089	2.85 ± 0.074	3.16 ± 0.1
NLCGDISLEALNFYITN [SIR3]	2.55 ± 0.064	2.73 ± 0.059	2.6 ± 0.053	2.74 ± 0.032
SDGIVLAAERKVTSTLL [PRE9]	2.39 ± 0.1	1.58 ± 0.065		1.85 ± 0.075
TLISENWWHSEFEIPVS [BRR2]	1.84 ± 0.11	1.59 ± 0.058	1.8 ± 0.1	1.25 ± 0.059
VTFIFGELKRGNESVKP [MED11]	3.43 ± 0.17	3.12 ± 0.077	2.97 ± 0.1	2.98 ± 0.15
NTDLKDIIQGNPLMYSG [PCI8]	2.84 ± 0.051	3.13 ± 0.085	3.21 ± 0.11	3.2 ± 0.086
HDFIKGLIMLNLQPASV [NUT1]	1.83 ± 0.059	1.24 ± 0.071	1.22 ± 0.14	1.24 ± 0.065
TSDSESTLYKYLKESKR [SWI3]	3.11 ± 0.084	2.66 ± 0.11	2.89 ± 0.12	2.74 ± 0.054
PSTNAQNVNVPSAFNFT [YOR098C/NUP1]	2.6 ± 0.046	2.73 ± 0.054	2.67 ± 0.041	2.75 ± 0.045
LPLYEKNTLLERLKQLT [SWP82]	2.71 ± 0.16	2.87 ± 0.088	2.73 ± 0.1	2.87 ± 0.22
ISSSAIPYSRNAPAWFK [RPS13]	2.33 ± 0.09	2.9 ± 0.071	2.21 ± 0.086	2.37 ± 0.063
LLLSPDQWYCIDKLEDL [ITC1]	3.06 ± 0.11	3.4 ± 0.11	3.22 ± 0.097	2.48 ± 0.077
SYFSPINSSNEALVQAF [YCG1]	2.33 ± 0.063	2.19 ± 0.061	2.69 ± 0.072	2.25 ± 0.042
NLDFDPRDVIKGKDFEI [FAS1]	3.47 ± 0.25	2.9 ± 0.29	3.32 ± 0.11	3.46 ± 0.1
MAVGKNKRLSRGKKGLK [RPS1B]	1.49 ± 0.13	1.62 ± 0.083	1.64 ± 0.14	1.46 ± 0.12
DISAAIVHSSDGHLQFL [DLS1]	2.92 ± 0.056	2.85 ± 0.068	3.01 ± 0.048	2.8 ± 0.078
LRRASATVPSAPYRKQI [YAR002W/NUP60]	2.72 ± 0.095	2.93 ± 0.11	2.07 ± 0.13	2.64 ± 0.068
DSFTMPNISHSNIDYQT [SNF2]	2.4 ± 0.088	2.12 ± 0.1	2.49 ± 0.13	2.41 ± 0.072
EGNEKLAAVPAAGPASA [RPP2A]	2.06 ± 0.061	2.23 ± 0.063	2.17 ± 0.09	2.79 ± 0.063
DGIFSSKTDNIEDPNLS [YMR153W/NUP53]	2.59 ± 0.086	2.2 ± 0.092	2.69 ± 0.096	2.55 ± 0.095
AKSISTSAKEPSENDVF [RPO31]	2.99 ± 0.072	3.06 ± 0.069	2.56 ± 0.083	3.2 ± 0.09
NMFELAQQLVGVYKRDN [SMC4]	1.08 ± 0.11	1.61 ± 0.12	1.61 ± 0.16	1.37 ± 0.13
LNCCGSVARVEDHDVHS [IRR1]	1.98 ± 0.079	2.49 ± 0.065	2.41 ± 0.068	2.45 ± 0.06
HGGGNHQHIGKASTISR [RPL2A]	3.18 ± 0.051	3.31 ± 0.052	3.08 ± 0.039	3.11 ± 0.04

From the supplement of paper PMC9732359
